Measurements published in publication PMC11342335, “An anti-sortilin affibody-peptide fusion inhibits sortilin-mediated progranulin degradation” (Frontiers in Immunology, 2024).

How the values were obtained:
[1] = biological target: T1, sortilin on the surface of U-251 and PC-3 cells (human (endogenous in U-251 and PC-3), UniProt Q99523 78-831); assay: cell-based or functional assay
T1 sequence (looked up): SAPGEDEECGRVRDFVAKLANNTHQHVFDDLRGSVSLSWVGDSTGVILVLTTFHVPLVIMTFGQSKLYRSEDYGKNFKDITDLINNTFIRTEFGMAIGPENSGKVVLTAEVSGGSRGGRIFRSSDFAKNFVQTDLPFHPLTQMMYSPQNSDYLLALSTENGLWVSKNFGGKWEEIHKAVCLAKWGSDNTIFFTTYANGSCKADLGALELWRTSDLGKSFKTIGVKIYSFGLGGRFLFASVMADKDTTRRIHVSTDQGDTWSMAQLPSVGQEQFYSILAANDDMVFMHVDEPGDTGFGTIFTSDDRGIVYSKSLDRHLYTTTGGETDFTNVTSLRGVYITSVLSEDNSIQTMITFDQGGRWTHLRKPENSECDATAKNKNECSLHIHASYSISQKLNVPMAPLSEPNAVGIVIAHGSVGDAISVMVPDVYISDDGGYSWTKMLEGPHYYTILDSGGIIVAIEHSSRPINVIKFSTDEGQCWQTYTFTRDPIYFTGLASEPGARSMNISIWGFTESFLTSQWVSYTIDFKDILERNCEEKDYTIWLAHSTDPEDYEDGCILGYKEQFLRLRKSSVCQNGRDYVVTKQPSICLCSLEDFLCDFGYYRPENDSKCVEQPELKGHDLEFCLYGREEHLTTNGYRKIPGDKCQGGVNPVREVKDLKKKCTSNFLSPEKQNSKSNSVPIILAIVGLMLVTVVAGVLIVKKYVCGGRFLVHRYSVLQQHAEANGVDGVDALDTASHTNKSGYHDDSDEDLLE

[2] = biological target: T2, human sortilin (R&D Systems, 3154-ST) (human, UniProt Q99523 78-755); assay: SPR; Biacore 8K, affinity determination of second-generation constructs; 30-100 RU of ABD035-containing constructs captured on immobilised HSA (CM5); 1-200 nM human sortilin injected 180 s at 30 µl/min, 25°C, PBST; 60 min dissociation; 1:1 Langmuir fit; apparent constants; n=3 technical replicates; conditions: both partners purified
T2 construct: sortilin, human, recombinant protein bought from R&D Systems (3154-ST); also called hSort; SORT1; source: bought: R&D Systems (3154-ST)
T2 sequence (looked up): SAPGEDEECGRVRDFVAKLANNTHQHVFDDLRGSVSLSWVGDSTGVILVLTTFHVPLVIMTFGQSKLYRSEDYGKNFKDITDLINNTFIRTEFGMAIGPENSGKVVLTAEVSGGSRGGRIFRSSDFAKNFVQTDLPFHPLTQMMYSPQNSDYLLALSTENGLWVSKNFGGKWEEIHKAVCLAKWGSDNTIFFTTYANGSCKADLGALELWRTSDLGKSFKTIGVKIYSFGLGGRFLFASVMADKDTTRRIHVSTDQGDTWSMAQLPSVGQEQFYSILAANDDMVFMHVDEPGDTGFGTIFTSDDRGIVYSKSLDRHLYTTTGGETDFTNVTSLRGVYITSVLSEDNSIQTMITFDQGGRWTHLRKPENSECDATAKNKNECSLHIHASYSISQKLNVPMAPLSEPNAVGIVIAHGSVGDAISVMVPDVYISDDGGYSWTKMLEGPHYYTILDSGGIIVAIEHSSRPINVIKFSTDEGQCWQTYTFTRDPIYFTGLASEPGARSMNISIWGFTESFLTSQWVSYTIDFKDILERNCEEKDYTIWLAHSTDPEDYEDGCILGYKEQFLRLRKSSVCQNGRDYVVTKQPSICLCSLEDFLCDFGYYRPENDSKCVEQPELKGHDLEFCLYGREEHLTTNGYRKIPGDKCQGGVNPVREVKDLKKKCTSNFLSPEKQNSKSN

- PGRN clearance assay: fold increase of extracellular PGRN (ELISA) against untreated U-251 cells after 72 h, at the highest tested concentration (500 nM); no plateau, no EC50 [1]: ≤ 1.44 fold
- Kd [2]: 15.9 nM
- koff [2]: 0.00337 s⁻¹
- kon [2]: 212000 M⁻¹ s⁻¹
B1: ABD-PGRNC21* (His6-ABD035-PGRNC21*) (peptide, UniProt P28799 573-593, looked up)
chain: LRREAPRWDAPLRDPGLRQLL
notes: progranulin (PGRN), human, the 21 C-terminal residues L573-L593 (PGRNC21) with A588G (PGRNC21*); numbers count from the start codon; also called the PGRN C-terminus; PGRNC alone; source: E. coli BL21 Star, purified (IMAC, HisPur Cobalt); not shown: ABD035, N-terminal, kept
